This is an account of results in patent publication US20030219718, “Inhibitors of the S100-p53 protein-protein interaction and method of inhibiting cancer employing the same” (UNIVERSITY OF MARYLAND, BALTIMORE, published 2003).

In the data set the target is p53 (UniProt P04637 P04637:1-393). Kind of data set: EMSA; supershifted by p53 antibody; five times more protein and DNA needed than for GADD45; salmon sperm DNA 1.0 µg. As to conditions: tags: baculovirus expressed, Protein Sciences Inc; chain copies: 4; label: T4 polynucleotide kinase end label.
p53, sequence (P04637 whole entry, one chain of several): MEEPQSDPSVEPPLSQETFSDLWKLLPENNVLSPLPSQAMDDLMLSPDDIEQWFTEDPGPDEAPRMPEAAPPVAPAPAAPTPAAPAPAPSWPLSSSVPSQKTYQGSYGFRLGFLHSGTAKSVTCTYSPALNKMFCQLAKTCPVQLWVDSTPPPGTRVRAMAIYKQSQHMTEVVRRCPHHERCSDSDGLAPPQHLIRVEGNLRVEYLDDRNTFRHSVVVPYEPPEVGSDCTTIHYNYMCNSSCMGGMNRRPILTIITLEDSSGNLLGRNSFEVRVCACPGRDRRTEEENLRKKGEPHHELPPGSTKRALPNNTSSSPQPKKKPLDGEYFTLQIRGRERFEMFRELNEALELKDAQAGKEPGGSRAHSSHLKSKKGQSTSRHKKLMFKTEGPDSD

Description: Accordingly, mobility shift assays were performed with purified p53 to determine if these sequences in the promoter of S100B were bona fide p53 binding sites, using the GADD45 sequence as a positive control. […] The baculovirus expressed p53 was obtained from Protein Sciences Inc. (Baltimore, Md.). Baculovirus expressed p53 was used (0.6 and 3.0 μg) for binding to the GADD45 and the S100B oligonucleotides respectively.

B1: S100B promoter p53 site (20/20 match, nt 1705-1735) (dsDNA)
DNA 1: GCCTGGGCAAGCTCTGTGCTTCACAGAGCAAGCCTGTGT
DNA 2: ACACAGGCTTGCTCTGTGAAGCACAGAGCTTGCCCAGGC
Consider B1, for which the binding result is “binds”.
